Paper PMC6660750, “Catalytic deficiency of O-GlcNAc transferase leads to X-linked intellectual disability” (Proceedings of the National Academy of Sciences of the …, 2019)

Legend:
[1] = target: T1, truncated OGT N567K (O-GlcNAc transferase, residues 323-1044, N567K variant) (human) (UniProt O15294)
T1 sequence: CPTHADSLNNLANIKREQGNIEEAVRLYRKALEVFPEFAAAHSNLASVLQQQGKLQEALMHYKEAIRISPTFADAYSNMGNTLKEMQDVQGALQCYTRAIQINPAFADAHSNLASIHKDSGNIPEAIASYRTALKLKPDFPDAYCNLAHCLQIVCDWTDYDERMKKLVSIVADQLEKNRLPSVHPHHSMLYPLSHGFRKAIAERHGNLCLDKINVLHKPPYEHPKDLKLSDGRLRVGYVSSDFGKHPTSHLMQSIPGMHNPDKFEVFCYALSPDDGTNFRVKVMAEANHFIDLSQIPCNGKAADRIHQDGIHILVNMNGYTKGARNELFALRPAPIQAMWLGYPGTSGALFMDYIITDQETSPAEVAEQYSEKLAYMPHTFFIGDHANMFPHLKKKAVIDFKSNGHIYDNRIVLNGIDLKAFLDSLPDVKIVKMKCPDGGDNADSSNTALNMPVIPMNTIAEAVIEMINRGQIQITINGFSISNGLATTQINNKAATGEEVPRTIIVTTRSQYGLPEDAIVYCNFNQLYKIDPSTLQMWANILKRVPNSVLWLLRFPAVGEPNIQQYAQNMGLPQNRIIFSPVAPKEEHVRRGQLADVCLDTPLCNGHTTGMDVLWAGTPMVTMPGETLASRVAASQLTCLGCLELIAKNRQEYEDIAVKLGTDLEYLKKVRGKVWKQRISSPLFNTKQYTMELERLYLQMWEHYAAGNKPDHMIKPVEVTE

[2] = target: T2, truncated OGT N567K (O-GlcNAc transferase, residues 323-1044, N567K variant) (human, UniProt O15294 323-1044, N567K); test: crystal structure; OGT N567K (323-1044) cocrystallized with the donor analog UDP-5S-GlcNAc and acceptor peptide P2; ternary complex; molecular replacement with PDB 5C1D; settings: both partners purified
T2 construct: O-GlcNAc transferase (OGT), human, residues 323-1044, with the patient missense mutation N567K in the catalytic domain; In the crystal it also holds the donor analog UDP-5S-GlcNAc; N567K is a de novo mutation found in patients; also called N567K OGT; O-linked β-N-acetyl-D-glucosamine (O-GlcNAc) transferase N567K; source: recombinant, from Escherichia coli (expression and purification in SI …)
T2 sequence (looked up): T1 sequence

Which OGT glycosyltransferase activity, steady-state (Michaelis-Menten) kinetics, fluorometric assay, OGT N567K against acceptor peptide P1, compared with OGT WT [1] does the source give for KKVPVSRA [P1 acceptor peptide (KKVPVSRA)] here?
Its OGT glycosyltransferase activity, steady-state (Michaelis-Menten) kinetics, fluorometric assay, OGT N567K against acceptor peptide P1, compared with OGT WT is 12 fold.

B1: P2 acceptor peptide (KKVAVSRA) (peptide)
peptide: KKVAVSRA
notes: OGT acceptor peptide substrate with alanine at the -2 subsite
Does B1 bind [2]?
Result: binds
